Common to all, as to assay: cell-based or functional assay
Experiment [1] has as its target T1, mouse NMUR1-ATG (mouse, UniProt O55040 1-428).
T1 sequence (looked up): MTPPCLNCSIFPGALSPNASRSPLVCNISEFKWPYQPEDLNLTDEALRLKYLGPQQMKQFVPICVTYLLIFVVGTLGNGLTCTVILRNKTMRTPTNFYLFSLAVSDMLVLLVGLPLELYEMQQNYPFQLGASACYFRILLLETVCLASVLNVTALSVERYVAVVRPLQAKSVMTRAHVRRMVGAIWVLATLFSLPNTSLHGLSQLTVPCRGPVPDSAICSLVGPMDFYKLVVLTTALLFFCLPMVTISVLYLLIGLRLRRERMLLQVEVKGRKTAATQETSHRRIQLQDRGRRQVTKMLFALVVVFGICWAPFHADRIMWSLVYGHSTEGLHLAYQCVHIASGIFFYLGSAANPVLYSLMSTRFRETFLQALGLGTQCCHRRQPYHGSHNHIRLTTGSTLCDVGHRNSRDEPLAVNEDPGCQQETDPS

Experiment [2] addresses T2, rat NMUR1-TTG (rat, UniProt Q9JJI5 1-425).
T2 sequence (looked up): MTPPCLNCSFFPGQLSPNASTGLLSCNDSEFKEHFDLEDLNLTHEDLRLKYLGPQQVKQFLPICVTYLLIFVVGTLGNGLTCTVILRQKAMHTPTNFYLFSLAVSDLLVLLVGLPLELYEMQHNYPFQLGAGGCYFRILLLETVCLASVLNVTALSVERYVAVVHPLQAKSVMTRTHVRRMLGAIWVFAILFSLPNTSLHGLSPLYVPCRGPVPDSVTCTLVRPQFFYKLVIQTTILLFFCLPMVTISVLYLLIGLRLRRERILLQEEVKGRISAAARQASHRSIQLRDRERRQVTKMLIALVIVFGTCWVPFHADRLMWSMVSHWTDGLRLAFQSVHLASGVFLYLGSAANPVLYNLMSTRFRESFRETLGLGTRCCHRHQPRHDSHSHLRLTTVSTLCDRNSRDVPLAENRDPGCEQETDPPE

For experiment [3], the target named is T3, mouse NMUR1-CTG (mouse, UniProt O55040 1-428).
T3 sequence (looked up): T1 sequence (looked up)

In experiment [4] the target is T4, human NMUR1 (human, UniProt Q9HB89 1-426).
T4 sequence (looked up): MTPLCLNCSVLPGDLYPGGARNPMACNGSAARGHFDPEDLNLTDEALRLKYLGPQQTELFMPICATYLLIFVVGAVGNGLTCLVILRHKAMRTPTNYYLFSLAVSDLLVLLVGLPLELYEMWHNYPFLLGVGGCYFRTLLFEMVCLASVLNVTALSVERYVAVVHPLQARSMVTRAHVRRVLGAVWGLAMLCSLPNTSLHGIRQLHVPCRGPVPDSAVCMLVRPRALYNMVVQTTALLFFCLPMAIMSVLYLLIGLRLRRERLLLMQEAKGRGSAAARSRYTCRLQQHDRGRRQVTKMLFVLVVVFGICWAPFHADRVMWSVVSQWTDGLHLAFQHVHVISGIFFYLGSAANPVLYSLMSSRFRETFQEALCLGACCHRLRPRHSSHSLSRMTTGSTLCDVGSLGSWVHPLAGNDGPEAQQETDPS

The target of experiment [5] is T5, rat NMUR2 (rat, UniProt Q9ESQ4 1-395).
Experiment [6] concerns the target T1, mouse NMUR1-ATG. This is another data set of the same source.
A further experiment concerns the target T6, rat NMUR1-ATG (rat, UniProt Q9JJI5 1-425).
T6 sequence (looked up): T2 sequence (looked up)

For a further experiment, the target named is human NMUR2 (human, UniProt Q9GZQ4 1-415).
For experiment [7], the target named is T2, rat NMUR1-TTG. The source holds these as a separate data set.
The target of experiment [8] is T3, mouse NMUR1-CTG. This is another data set of the same source.
Experiment [9] addresses T4, human NMUR1. The source holds these as a separate data set.
The target of a further experiment is mouse NMUR2 (mouse, UniProt Q8BZ39 1-395).
Experiment [10] concerns the target T5, rat NMUR2. This is another data set of the same source.

Results on one molecule are retold here after patent US20070244048A1 (published 2007).

Where two headings read alike, the source gives them in different places. No end group written: not given here.

T5 sequence (Q9ESQ4 whole entry): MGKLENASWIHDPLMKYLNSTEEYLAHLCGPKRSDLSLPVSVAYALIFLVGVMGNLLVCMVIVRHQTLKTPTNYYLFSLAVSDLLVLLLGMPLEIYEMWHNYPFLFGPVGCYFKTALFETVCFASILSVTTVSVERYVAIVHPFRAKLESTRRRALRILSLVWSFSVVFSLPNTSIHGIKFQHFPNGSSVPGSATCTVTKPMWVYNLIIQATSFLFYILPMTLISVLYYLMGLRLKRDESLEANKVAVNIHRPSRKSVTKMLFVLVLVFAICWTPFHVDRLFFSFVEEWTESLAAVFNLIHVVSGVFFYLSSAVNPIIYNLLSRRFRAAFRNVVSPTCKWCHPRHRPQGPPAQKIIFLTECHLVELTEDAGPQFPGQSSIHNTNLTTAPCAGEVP
human NMUR2, sequence (Q9GZQ4 whole entry): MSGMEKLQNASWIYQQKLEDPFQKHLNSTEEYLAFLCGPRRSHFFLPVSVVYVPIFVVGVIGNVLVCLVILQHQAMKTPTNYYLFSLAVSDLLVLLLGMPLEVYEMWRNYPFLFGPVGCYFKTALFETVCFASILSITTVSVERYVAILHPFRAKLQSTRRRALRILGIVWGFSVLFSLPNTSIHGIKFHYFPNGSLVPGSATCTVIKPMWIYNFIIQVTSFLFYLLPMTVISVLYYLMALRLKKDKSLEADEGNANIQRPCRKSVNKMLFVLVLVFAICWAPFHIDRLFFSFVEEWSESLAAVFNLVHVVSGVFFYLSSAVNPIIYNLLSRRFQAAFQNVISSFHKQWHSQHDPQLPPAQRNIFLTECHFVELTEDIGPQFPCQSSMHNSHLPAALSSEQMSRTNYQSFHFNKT
mouse NMUR2, sequence (Q8BZ39 whole entry): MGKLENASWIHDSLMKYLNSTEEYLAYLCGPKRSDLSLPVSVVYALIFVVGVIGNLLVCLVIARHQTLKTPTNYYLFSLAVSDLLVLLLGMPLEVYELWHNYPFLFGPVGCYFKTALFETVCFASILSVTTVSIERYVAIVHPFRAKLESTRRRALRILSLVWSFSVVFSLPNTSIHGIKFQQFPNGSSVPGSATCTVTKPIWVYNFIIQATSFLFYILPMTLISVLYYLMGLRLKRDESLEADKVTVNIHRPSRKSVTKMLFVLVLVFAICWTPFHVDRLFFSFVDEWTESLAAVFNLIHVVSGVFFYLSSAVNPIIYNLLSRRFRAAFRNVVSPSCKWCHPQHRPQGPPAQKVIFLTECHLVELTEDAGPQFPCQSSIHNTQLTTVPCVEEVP

B1: human NMU-25 (peptide)
peptide: FRVDEEFQSPFASQSRGYFLFRPRN-NH2
notes: also called hNMU-25; native hNMU
For the molecule B1, the “IC50 (nM), functional” value worked out at 0.9 nM with mouse NMUR1-ATG [1]; 1 nM with rat NMUR1-TTG [2]; 2.9 nM in the experiment with mouse NMUR1-CTG [3]; 0.2 nM with human NMUR1 [4]; 1.6 nM with rat NMUR2 [5]; 0.9 nM in the experiment with mouse NMUR1-ATG [6]. Also, the “IC50 (nM), functional” value turned out to be 1.3 nM with rat NMUR1-ATG; 0.8 nM with human NMUR2; 1 nM with rat NMUR1-TTG [7]; 2.9 nM in the experiment with mouse NMUR1-CTG [8]; 0.2 nM with human NMUR1 [9]; 0.2 nM in the experiment with mouse NMUR2. Also, the “IC50 (nM), functional” value in the experiment with rat NMUR2 [10] was found to be 1.6 nM.
